Experimental data: patent US20190300611A1 (ARCH ONCOLOGY, published 2019)

Experiments:
[1] = target: T1, human CD47 (human, UniProt Q08722 19-292); assay: flow cytometry on human RBCs
T1 construct: On the surface of OV10 cells transfected with human CD47, fresh human RBCs, Jurkat T cells or human breast cancer tissue; also called hCD47; integrin-associated protein (IAP)
Procedure: Binding activities of chimeric (murine-human) and humanized VLX4, VLX8, and VLX9 mAbs to human CD47 on hRBCs were also determined using flow cytometry. hRBCs were incubated for 60 min on at 37° C. with various concentrations of the chimeric or humanized antibodies in a solution of phosphate buffered saline, pH 7.2, 2.5 mM EDTA (PBS+E). Cells were then washed with cold PBS+E, and incubated for an additional hour on ice with FITC labeled donkey anti-human antibody (Jackson Immuno Research Labs, West Grove, Pa.; Catalogue #709-096-149) in PBS+E. Cells were washed with PBS+E, antibody binding analyzed using a C6 Accuri Flow Cytometer (Becton Dickinson) and apparent binding affinities determined by non-linear fit (Prism GraphPad software) of the median fluorescence intensities at the various antibody concentrations.

[2] = target: T1, human CD47; assay: cell-based ELISA on OV10 hCD47 cells
Procedure: Binding activities of VLX4, VLX8, and VLX9 chimeric (murine-human) and humanized mAbs were determined using a cell-based ELISA assay with human OV10 hCD47 cells expressing cell surface human CD47. OV10 hCD47 cells were grown in IMDM medium containing 10% heat inactivated fetal bovine serum (BioWest; S01520). One day before assay, 3×10⁴ cells were plated in 96 well cell bind plates (Corning #3300, VWR #66025-626) and were 95-100% confluent at the time of assay. Cells were washed and various concentrations of purified antibodies added in IMDM 37° C. for 1 hr in […]. Cells were then washed with media and incubated for an additional hour at 37° C. with HRP labeled secondary anti-human antibody (Promega) diluted 1/2500 in media. Cells were washed three times with PBS, and the peroxidase substrate 3,3′, 5,5′-tetramethylbenzidine is added (Sigma; Catalog #T4444). Reactions were terminated by the addition of HCl to 0.7N, and absorbance at 450 nm is determined using a Tecan model Infinite M200 plate reader. The apparent binding affinities of these clones to human OV10 hCD47 cells was determined by non-linear fit (Prism GraphPad software).

T1 sequence (Q08722 other isoform, or with tags, fused parts or gaps limits assumed): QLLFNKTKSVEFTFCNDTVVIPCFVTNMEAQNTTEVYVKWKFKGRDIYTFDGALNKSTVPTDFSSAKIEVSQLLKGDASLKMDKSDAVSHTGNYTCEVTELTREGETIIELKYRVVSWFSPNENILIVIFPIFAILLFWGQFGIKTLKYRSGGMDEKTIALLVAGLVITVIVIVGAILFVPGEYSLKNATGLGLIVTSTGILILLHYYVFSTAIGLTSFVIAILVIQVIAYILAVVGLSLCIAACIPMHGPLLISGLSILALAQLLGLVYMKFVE

B1: VLX4 IgG4 S228P (xi) (antibody)
heavy: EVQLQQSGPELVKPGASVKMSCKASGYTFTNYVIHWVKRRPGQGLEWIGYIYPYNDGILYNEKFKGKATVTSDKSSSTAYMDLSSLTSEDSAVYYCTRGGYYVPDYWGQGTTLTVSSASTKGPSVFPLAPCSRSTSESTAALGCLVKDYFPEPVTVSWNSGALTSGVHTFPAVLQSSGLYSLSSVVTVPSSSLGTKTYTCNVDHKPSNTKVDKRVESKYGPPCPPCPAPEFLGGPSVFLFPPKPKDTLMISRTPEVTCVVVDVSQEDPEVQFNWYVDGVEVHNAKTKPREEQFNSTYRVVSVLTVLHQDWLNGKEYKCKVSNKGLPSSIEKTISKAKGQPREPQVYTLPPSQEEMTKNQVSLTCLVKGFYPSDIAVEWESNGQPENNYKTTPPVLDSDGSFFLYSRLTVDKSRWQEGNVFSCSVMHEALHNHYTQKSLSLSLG
light: DVLMTQTPLSLPVNLGDQASISCRSRQSIVHTNGNTYLGWFLQKPGQSPKLLIYKVSNRFSGVPDRFSGSGSGTDFTLTISRVEAEDLGVYYCFQGSHVPYTFGGGTKLEIKRTVAAPSVFIFPPSDEQLKSGTASVVCLLNNFYPREAKVQWKVDNALQSGNSQESVTEQDSKDSTYSLSSTLTLSKADYEKHKVYACEVTHQGLSSPVTKSFNRGEC
Work on B1 yielded a Kd [1] of 0.099 nM and a Kd [2] of 0.214 nM.

B2: VLX4 IgG4 PE(xi) (antibody)
heavy: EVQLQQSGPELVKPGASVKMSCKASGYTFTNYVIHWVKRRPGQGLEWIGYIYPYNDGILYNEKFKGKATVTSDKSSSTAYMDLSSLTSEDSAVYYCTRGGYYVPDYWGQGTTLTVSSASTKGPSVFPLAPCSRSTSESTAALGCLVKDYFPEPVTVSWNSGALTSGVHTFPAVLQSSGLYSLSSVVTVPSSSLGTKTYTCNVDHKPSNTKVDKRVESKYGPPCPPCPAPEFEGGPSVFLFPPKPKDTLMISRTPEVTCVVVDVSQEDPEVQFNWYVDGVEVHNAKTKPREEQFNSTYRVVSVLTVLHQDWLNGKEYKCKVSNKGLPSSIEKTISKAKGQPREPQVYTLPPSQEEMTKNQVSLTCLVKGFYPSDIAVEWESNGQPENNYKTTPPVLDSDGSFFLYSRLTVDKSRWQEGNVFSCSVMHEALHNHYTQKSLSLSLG
light: B1 light
notes: Murine-human chimera; also called VLX4 IgG4PE chimeric mAb
For B2, the Kd [1] was 0.303 nM and the Kd [2] was 0.225 nM.

B3: VLX4 IgG2 (xi) (antibody)
heavy: EVQLQQSGPELVKPGASVKMSCKASGYTFTNYVIHWVKRRPGQGLEWIGYIYPYNDGILYNEKFKGKATVTSDKSSSTAYMDLSSLTSEDSAVYYCTRGGYYVPDYWGQGTTLTVSSASTKGPSVFPLAPCSRSTSESTAALGCLVKDYFPEPVTVSWNSGALTSGVHTFPAVLQSSGLYSLSSVVTVPSSNFGTQTYTCNVDHKPSNTKVDKTVERKCCVECPPCPAPPVAGPSVFLFPPKPKDTLMISRTPEVTCVVVDVSHEDPEVQFNWYVDGVEVHNAKTKPREEQFNSTFRVVSVLTVVHQDWLNGKEYKCKVSNKGLPAPIEKTISKTKGQPREPQVYTLPPSREEMTKNQVSLTCLVKGFYPSDIAVEWESNGQPENNYKTTPPMLDSDGSFFLYSKLTVDKSRWQQGNVFSCSVMHEALHNHYTQKSLSLSPGK
light: B1 light
B3 showed a Kd [1] of 0.184 nM and a Kd [2] of 0.431 nM.
